{
  "source": "patent US20160280788A1",
  "about": "“USE OF ANTIBODIES AGAINST ICAM-1 IN THE TREATMENT OF PATIENTS WITH RELAPSED CANCER” (BioInvent International AB, priority 2010, published 2016)",
  "key": {"[1]": {"system": "EJM myeloma cells", "assay": "Subcutaneous myeloma xenograft, EJM", "type": "in vivo, scid mice", "details": "2 mg/kg twice weekly i.p.; vs control IgG1", "protocol": "Antibody treatment with 2 mg/kg BI-505 or control IgG1 was started at Day 1 and was continued on a twice-weekly intraperitoneal dosing regimen. Mice were sacrificed when tumor sizes reached the ethical limit."}, "[2]": {"system": "ARH-77 cells", "assay": "Disseminated scid/ARH-77 model of multiple myeloma", "type": "in vivo, scid mice", "details": "i.v. on Days 7, 10, 13, 16; antibody 2 mg/kg, bortezomib 0.5 mg/kg; vs control", "protocol": "ARH-77 cells or RPMI-8226 were injected intraveniously into the SCID mice. (FIG. 6A) ARH-77 model. Animals received intravenous injections with antibody at 2 mg/kg or bortezomib (Velcade) at 0.5 mg/kg on Days 7, 10, 13, and 16 (as indicated by arrows in the graph). (FIG. 6B) RPMI-8226-model. BI-505 or control mAb was administered i.v at 2 mg/kg, twice weekly for 8 weeks, bortezomid, at 1 mg/kg, once weekly for 8 weeks, lenalidomide p.o with 2 mg/kg for 2 cycles consisting of 5 days of treatment and 2 days of wash out, melphalan i.v at 3 mg/kg, once weekly for 8 weeks, and dexamethasone (DXH) at 6 mg/kg/inj 3 times/week for 2 consecutive weeks. There were 6-10 mice per treatment group. Statistical significance was calculated using Log-rank Graphpad Prism software and determined at ***p<0.001. (FIG. 6C) To study the ICAM-1 level on human cells, the cells from different organs were stained and gated for CD38+/mCD45−/BI-505+. Left panel indicates the percentage of BI-505 positive cells in CD38+/mCD45 population and right panel the mean fluorescent intensity of the positive cells.\nThe anti-myeloma effect of BI-505 was examined in a disseminated model of multiple myeloma. The early and advanced disseminated model of multiple myeloma was performed at Oncodesign, Dijon, France. Briefly: 1×10^6 (early) or 5×10^6 (advanced) ARH-77 tumor cells in 200 μL of RPMI 1640 were injected intravenously (i.v) into the caudal vein of female scid mice (D0). Tumor cell injections were performed twenty four to forty eight hours after a whole body irradiation of mice (1.8 Gy, ^60Co, INRA, BRETENNIERES). The treatment was started at D5 (RPMI-8226 model) or D7 ([…] model) except alkeran which was administered at D10. B11 or control mAb was administered i.v. at 2 mg/kg, twice weekly for 8 weeks, bortezomib, at 1 mg/kg, once weekly for 8 weeks, lenalidomide p.o with 2 mg/kg for 2 cycles consisting of 5 days of treatment and 2 days of wash out, melphalan i.v. at 3 mg/kg, once weekly for 8 weeks and dexamethasone at 6 mg/kg, injected 2 consecutive weeks.\nThe disseminated model of scid/ARH-77 is a well-established experimental model that resembles human multiple myeloma disease progression and disease manifestation in many respects (33). We utilized this model to further characterize IgG B11 anti-myeloma activity (FIG. 6A). Intravenous injection of irradiated scid mice with 1×10^6 ARH-77 cells was previously shown to result in their dissemination and establishment in mouse bone-marrow, and resulting osteolytic bone-lesions and hypercalcemia, and ultimately, in animal paralysis or difficulty of breathing at which time animals were immediately sacrificed. […]"}, "[3]": {"biological_target": "T1, human FcγRIIIa (Homo sapiens, UniProt P08637)", "T1 construct": "made in house; host or cells: HEK293E (transient)", "T1 sequence (P08637 17-254)": "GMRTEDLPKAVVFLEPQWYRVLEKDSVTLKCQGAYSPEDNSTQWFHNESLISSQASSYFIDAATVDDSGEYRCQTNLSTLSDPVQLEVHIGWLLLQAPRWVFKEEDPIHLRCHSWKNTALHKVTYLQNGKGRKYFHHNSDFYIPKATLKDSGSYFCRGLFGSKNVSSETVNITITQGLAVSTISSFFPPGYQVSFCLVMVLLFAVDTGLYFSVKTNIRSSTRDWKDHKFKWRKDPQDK", "assay": "Biacore binding of BI-505 isotype variants to human FcγRIIIa", "protocol": "His-tagged human FcγRIIIa or mouse FcγRIV were expressed transient in adherent HEK293E cells, purified using Ni-NTA chromatography and characterized using SDS-PAGE and/or Biacore. Surface plasmon resonance (SPR) measurements were perfomed using a Biacore 3000 instrument. Goat α-human-F(ab)′2 F(ab)′2 fragment (Jackson laboratories) was immobilised with a CM-5 chip using a standard amine coupling protocol. IgG1 B11, Iga4 B11, or 297Q B11 were diluted to 15 and 60 μg/mL respectively and added to the surface at […] for 3 min. His tagged human FcγRIIIa or mouse FcγRIV were pre-incubated with an α-HIS antibody (R&D Systems) at a 2:1 molar ratio before addition to the chip surface, […], 1 min. After each cycle the surface was regenerated twice with glycine buffer pH 1.7."}, "[4]": {"system": "peripheral blood B cells", "assay": "PCD in normal B cells", "type": "cell-based", "details": "resting or activated cells", "protocol": "Target cells were seeded in 96-well culture plates at a density of 2×10^6 cells/mL culture medium. Titrated concentrations of IgG1 B11 or different negative and positive control antibodies were added to the cells, in the absence or presence of anti-human Fab fragment (Jackson ImmunoResearch) for cross-linking. The cells were then incubated for 16 hours at 37° C. in a humidified atmosphere of 5% CO2. The cells were harvested and stained for Annexin V-488/Propidium Iodide (Invitrogen, Sweden) and analysed using flow cytometer (FACS Calibur, BD Bioscience)."}, "[5]": {"system": "HUVEC, HMVEC or peripheral blood B cells", "assay": "CDC of normal ICAM-1 expressing cells", "type": "cell-based", "protocol": "Target cells were harvested and incubated in RPMI medium with antibodies at 5 μg/mL or at titrated concentrations between 0.01-100 μg/mL for 60 min on ice. Cells were thereafter washed and resuspended in cold medium before dispension into flow cytometry tubes. Treatments were performed in triplicates. Human serum, normal or heat-inactivated, (Sigma, Sweden) was added to tubes and the samples were incubated for 2 h at 37° C. After completed incubation ToPo-Pro-3 was added at a final concentration of 0.3 μM and cells were analyzed for membrane permeabilization using flow cytometry."}, "[6]": {"biological_target": "recombinant human ICAM-1 (Homo sapiens, UniProt P05362)", "sequence (P05362 28-532)": "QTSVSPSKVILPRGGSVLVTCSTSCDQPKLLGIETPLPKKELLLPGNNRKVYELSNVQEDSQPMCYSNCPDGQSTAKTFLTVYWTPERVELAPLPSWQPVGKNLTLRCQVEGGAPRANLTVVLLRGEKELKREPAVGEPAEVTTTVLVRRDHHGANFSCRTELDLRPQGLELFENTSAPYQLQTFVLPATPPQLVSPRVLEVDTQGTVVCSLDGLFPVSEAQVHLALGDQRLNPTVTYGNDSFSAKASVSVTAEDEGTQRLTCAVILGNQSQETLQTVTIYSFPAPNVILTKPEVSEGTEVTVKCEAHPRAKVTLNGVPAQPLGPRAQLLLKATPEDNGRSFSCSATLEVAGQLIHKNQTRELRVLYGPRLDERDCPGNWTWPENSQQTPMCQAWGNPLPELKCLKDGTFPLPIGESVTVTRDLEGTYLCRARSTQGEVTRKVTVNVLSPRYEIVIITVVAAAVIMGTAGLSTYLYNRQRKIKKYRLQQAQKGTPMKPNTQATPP", "assay": "ELISA on recombinant human ICAM-1, ICAM-2, ICAM-3", "type": "binding", "details": "vs ICAM-2, ICAM-3", "protocol": "Antibody-specific bands were excised and subjected to tryptic digestion and analyzed by MALDI-TOF. The single band precipitated by BI-505 was identified as ICAM-1. The established identity of ICAM-1 was confirmed by blocking studies by up to 50-fold molar excess soluble recombinant ICAM-1 or VCAM. The MFI of BI-505 to PC-3 cells was determined by flow cytometry. Dashed line represents the negative control antibody and gray solid histogram represents the MFI of BI-505 with no preblocking. BI-505 was preblocked by recombinant VCAM or ICAM-1. […] Anti-ICAM-2 and α-ICAM-3 antibodies were used as positive controls to detect ICAM-2 and ICAM-3 respectively."}, "[7]": {"system": "ARH-77 cells", "assay": "Subcutaneous scid/ARH-77 xenograft, prophylactic model", "quoted_text": "Tumor cells were injected subcutaneously into the left flank of SCID mice. Mice received twice-weekly intraperitoneal injections with BI-505, control antibody or rituximab at doses of 20, 2 and/or 0.2 mg/kg commencing one day after tumor cell inoculation. There were 8 to 10 animals per treatment group. […] Statistical significance was calculated relative to control antibody treatment using Kruskal-Wallis Test (Nonparametric ANOVA) with Dunn's Multiple Comparisons Test (tumor volume) or the log-rank test (mouse survival) using Graphpad Instat or Prism software, respectively. Statistical significance was considered for *p<0.05, **p<0.01, and ***p<0.001.\nTumor cells were injected subcutaneously into the left flank of SCID mice. Mice received twice-weekly intraperitoneal injections with BI-505 at doses of 0.02-20 mg/kg commencing day after tumor cell inoculation. There were 8-10 animals per treatment group. […] Statistical significance was calculated relative to control antibody treatment using Kruskal-Wallis Test (Nonparametric ANOVA) with Dunn's Multiple Comparisons Test (tumor volume) or the log-rank test (mouse survival) using Graphpad Instat or Prism software, respectively. Statistical significance was considered for *p<0.05, **p<0.01, and ***p<0.001. Graphs illustrate representative experiments out of several performed.\n(FIG. 7A) ARH-77 cells were injected subcutaneously into the left flank of SCID mice (n=8 per group). Mice were treated with the different BI-505 isotypes twice weekly. […] Statistical significance was calculated relative to control antibody treatment using Kruskal-Wallis Test (Nonparametric ANOVA) with Dunn's Multiple Comparisons Test. Statistical significance was considered for *p<0.05, **p<0.01, and ***p<0.001.\nMice were anaesthetized with a mixture of sevofluran and oxygen prior to myeloma cell inoculation and 1-5×10^6 myeloma cells were then subcutaneously injected in a volume of 100 μl into the left flank."}},
  "data": [
    {"molecule": "IgG B11: fully human ICAM-1 antibody isolated from the n-CoDeR library; VH/VL sequences in FIG. 15 (SEQ ID NOs 8, 10) (antibody, V domains shown, B11 VH region; B11 VL region) VH: EVQLLESGGGLVQPGGSLRLSCAASGFTFSNAWMSWVRQAPGKGLEWVAFIWYDGSNKYYADSVKGRFTISRDNSKNTLYLQMNSLRAEDTAVYYCARYSGWYFDYWGQGTLVTVSS VL: QSVLTQPPSASGTPGQRVTISCTGSSSNIGAGYDVHWYQQLPGTAPKLLIYDNNNRPSGVPDRFSGSKSGTSASLAISGLRSEDEADYYCQSYDSSLSAWLFGGGTKLTVLG", "values": [
      {"measurement": "reduction of myeloma tumor growth", "setting": "[1]", "result": 98, "unit": "%"},
      {"measurement": "animal survival", "setting": "[2]", "result": "increased mean survival time"},
      {"measurement": "time to symptomatic disease onset", "setting": "[2]", "result": "doubled"},
      {"measurement": "binding to human FcγRIIIa", "setting": "[3]", "result": "bound to human FcγRIIIa"},
      {"measurement": "PCD induction in normal B cells", "setting": "[4]", "result": "did not, however, induce PCD"},
      {"measurement": "CDC of normal cells", "setting": "[5]", "result": "did not confer ADCC or CDC"},
      {"measurement": "specificity for ICAM-1", "setting": "[6]", "result": "high specificity"},
      {"measurement": "tumor growth", "setting": "[7]; 20 mg/kg twice weekly i.p., commencing one day after tumor cell inoculation", "result": "completely prevent tumor-growth"},
      {"measurement": "survival", "setting": "[7]; IgG B11 at 2 mg/kg, ten-fold lower dose than rituximab", "result": "complete survival"},
      {"measurement": "anti-tumor activity", "setting": "[7]; dose of 0.2 mg/kg, dose titration", "result": "near maximal"},
      {"measurement": "dose at which anti-tumor activity peaked", "setting": "[7]; dose titration 0.02-20 mg/kg twice weekly i.p.", "result": 2, "unit": "mg/kg"}
    ]}
  ]
}
